Tests used:
[1] = target: T1, recombinant human ANGPTL3 (rhANGPTL3) (SEQ ID NO:1) (human) (UniProt Q9Y5C1); assay: SE-UPLC of antibody mixed with rhANGPTL3 (1:3 molar ratio), run buffer pH 7.4
T1 sequence: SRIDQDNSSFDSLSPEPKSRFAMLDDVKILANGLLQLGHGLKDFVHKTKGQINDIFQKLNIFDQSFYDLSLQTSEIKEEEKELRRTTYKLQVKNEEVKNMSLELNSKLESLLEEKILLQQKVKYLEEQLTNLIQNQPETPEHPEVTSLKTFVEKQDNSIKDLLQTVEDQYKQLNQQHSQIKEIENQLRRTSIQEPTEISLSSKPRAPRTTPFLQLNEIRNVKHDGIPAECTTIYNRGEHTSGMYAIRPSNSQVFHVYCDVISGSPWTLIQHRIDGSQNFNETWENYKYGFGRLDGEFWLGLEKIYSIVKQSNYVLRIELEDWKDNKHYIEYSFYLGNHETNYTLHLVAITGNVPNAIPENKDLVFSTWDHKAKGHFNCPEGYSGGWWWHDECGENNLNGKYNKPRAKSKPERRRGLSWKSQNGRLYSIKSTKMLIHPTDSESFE

[2] = target: T1, recombinant human ANGPTL3 (rhANGPTL3) (SEQ ID NO:1) (human); assay: cell-based or functional assay
[3] = target: T1, recombinant human ANGPTL3 (rhANGPTL3) (SEQ ID NO:1) (human); assay: SE-UPLC of antibody mixed with rhANGPTL3 (1:3 molar ratio); change of mean retention time from pH 7.4 to 6.0
[4] = target: T1, recombinant human ANGPTL3 (rhANGPTL3) (SEQ ID NO:1) (human); assay: SE-UPLC of antibody mixed with rhANGPTL3 (1:3 molar ratio), run buffer pH 6.0

Sequence of evinacumab sequence identical analogue (SIA) (antibody) (VH): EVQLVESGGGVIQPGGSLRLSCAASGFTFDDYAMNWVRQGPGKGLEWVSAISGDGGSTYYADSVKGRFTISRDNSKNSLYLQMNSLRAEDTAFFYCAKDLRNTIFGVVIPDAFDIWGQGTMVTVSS
Sequence of evinacumab sequence identical analogue (SIA) (antibody) (VL): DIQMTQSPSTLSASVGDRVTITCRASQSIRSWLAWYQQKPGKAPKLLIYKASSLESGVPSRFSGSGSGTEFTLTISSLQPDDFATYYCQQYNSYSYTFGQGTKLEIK

“evinacumab sequence identical analogue (SIA) (antibody)” was tested, and the MRT (mean retention time of immune complex), pH7.4 [1] was 3.72 min, the RT (retention time of immune complex), pH7.4 [1] was 3.72 min and the Average relative IC50 (inhibition of rhANGPTL3-mediated LPL inhibition) (relative to evinacumab SIA) [2] was 1. For the same substance, the MRT shift, pH7.4 -> pH6.0 [3] was 0.1 min, the MRT (mean retention time of immune complex), pH6.0 [4] was 3.82 min and the RT (retention time of immune complex), pH6.0 [4] was 3.83 min.
